Source: patent US20150374848A1, “Methods for the Treatment of Head and Neck Squamous Cell Carcinoma” (Vigilant Biosciences, Inc., priority 2010, published 2015)
Entries after “also recorded” stand apart in the source; their conditions may differ.

Columns and labels:
[1] = target: CD44 as expressed on human HNSCC cell lines (T.Tn, SCC-15, Detroit-562, CAL 27) (human) (UniProt P16070); test: flow cytometry on CAL 27 cells, antibody at 20 ug/mL, duplicate samples
T.Tn HNSCC xenograft = test: established T.Tn HNSCC xenograft model; assay type: in vivo; conditions: 20 mg/kg i.p. three times per week
Procedure: With reference to FIGS. 2 and 3, 6 to 8 week old female SCID mice were implanted with 10 million T.Tn cells in 100 microliters PBS solution injected subcutaneously in the right flank. The mice were randomly divided into 2 treatment groups of 10. When the average tumor volume of the mice reached approximately 264-268 mm^3, 20 mg/kg of chPTA-4621 test antibody or buffer control was administered intraperitoneally to each cohort in a volume of 300 microliters after dilution from the stock concentration with a diluent that contained 2.7 mM KCl, 1 mM KH2PO4, 137 mM NaCl and 20 mM Na2HPO4. The antibody and control samples were then administered three times per week for the duration of the study. Tumor growth was measured about every 7 days with calipers. The study was completed after ten doses of antibody. Body weights of the animals were recorded once per week for the duration of the study. At the end of the study all animals were euthanized according to CCAC guidelines.

SCC-15 HNSCC cell line = test: FACS binding to HNSCC cell line SCC-15; set-up: species or system human; conditions: antibody 20 μg/mL on ice 30 minutes
Procedure: (§1) The binding of chPTA-4621 and huPTA-4621 to HNSCC cell lines T.Tn, SCC-15, and Detroit-562 was assessed by flow cytometry (FACS). Cells were prepared for FACS by initially washing the cell monolayer with DPBS (without Ca^++ and Mg^++). Cell dissociation buffer (INVITROGEN, Burlington, ON; for T.Tn, SCC-15 and Detroit-562) was then used to dislodge the cells from their cell culture plates at 37° C. After centrifugation and collection, the cells were resuspended in DPBS containing MgCl2, CaCl2, and 2 percent fetal bovine serum at 4° C. (staining media) and counted, aliquoted to appropriate cell density, spun down to pellet the cells and resuspended in staining media at 4° C. in the presence of test antibodies (chimeric or humanized PTA-4621) or control antibodies (isotype control, anti-EGFR (C225; T.Tn, SCC-15 and Detroit-562). Isotype control and test antibodies were assessed at 20 μg/mL on ice for 30 minutes. For detection of bound antibody, an Alexa Fluor 546 conjugated secondary antibody was used. Prior to the addition of the secondary antibody, the cells were washed once with staining media. The secondary antibody in staining media was then added according to manufacturer's directions. […] Flow cytometric acquisition of the T.Tn, SCC-15 and Detroit-562 cells was assessed by running samples on a FACScan using the CellQuest software (BD Biosciences, Oakville, ON). […]

T.Tn HNSCC cell line = test: FACS binding to HNSCC cell line T.Tn; set-up: species or system human; conditions: antibody 20 μg/mL on ice 30 minutes
Procedure: as §1

[2] = test system: Detroit-562 HNSCC cell line; test: FACS binding to HNSCC cell line Detroit-562; set-up: species or system human; conditions: antibody 20 μg/mL on ice 30 minutes
Procedure: as §1

[3] = test system: human breast cancer, liver cancer and prostate cancer xenografts; conditions: preventative and established models; cited from earlier work

“Humanized PTA-4621 (RO5429083) (antibody)” gave a fold binding compared to the humanized IgG1 isotype control [1] of 37 fold.

B1: chPTA-4621: chimeric PTA-4621 comprising VH and VL domains of SEQ ID NO:1 and SEQ ID NO:2 (antibody, V domains shown)
VH: EVKLLESGGGLVQPGGSLKLSCATSGFDFSRYWMSWVRQAPGKGLEWIGEVNPDSTSINYTPSLKDQFIISRDNAKNTLDLQMSKVSSEDTALYYCTRPNYYGSRYHYYAMDYWGQGTSVTVSS
VL: DIQMTQTTSSLSVSLGDRVTINCRASQDINNYLNWYQQKPDGTVKLLIYYTSRLHSGVPSRFSGSGSGTDFSLTISNLEKEDVATYFCQQGSTLPFTFGSGTKLEIK
modifications: human constant regions without entry; Synthetically generated peptide
With B1 the “clinical signs of toxicity / tolerability” value (T.Tn HNSCC xenograft) was “no clinical signs of toxicity; also recorded: well-tolerated”, the “mean body weight between the groups at end of treatment period” value (T.Tn HNSCC xenograft) was “no significant difference” and the “reduction of tumor growth compared to buffer treated group” value (T.Tn HNSCC xenograft; ten doses, day 105, p=0.0068) was 54.9%. For the same molecule, the “binding to SCC-15 cell line (FACS)” value (SCC-15 HNSCC cell line) was “bind”, the “binding to T.Tn cell line (FACS)” value (T.Tn HNSCC cell line) was “bind” and the “binding to Detroit-562 cell line (FACS)” value [2] was “bind”.

B2: PTA-4621: murine monoclonal anti-CD44 antibody produced by hybridoma ATCC PTA-4621; VH SEQ ID NO:1, VL SEQ ID NO:2 (antibody, V domains shown)
VH: EVKLLESGGGLVQPGGSLKLSCATSGFDFSRYWMSWVRQAPGKGLEWIGEVNPDSTSINYTPSLKDQFIISRDNAKNTLDLQMSKVSSEDTALYYCTRPNYYGSRYHYYAMDYWGQGTSVTVSS
VL: DIQMTQTTSSLSVSLGDRVTINCRASQDINNYLNWYQQKPDGTVKLLIYYTSRLHSGVPSRFSGSGSGTDFSLTISNLEKEDVATYFCQQGSTLPFTFGSGTKLEIK
modifications: Synthetically generated peptide
In the case of B2, the “anti-tumor effects in pre-clinical xenograft models” value [3] is listed as “significant anti-tumor effects”.
